# Test results taken from publication PMC7641913.
# Biological target: T1, His-Fur (Vibrio cholerae C7258 (El Tor; Peru, 1991)) (UniProt P0C6C8)
# T1 sequence: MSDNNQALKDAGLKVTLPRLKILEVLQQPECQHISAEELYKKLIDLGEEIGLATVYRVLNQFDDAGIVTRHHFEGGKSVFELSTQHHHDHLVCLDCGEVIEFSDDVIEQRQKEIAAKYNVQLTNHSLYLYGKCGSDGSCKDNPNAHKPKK
# Assay: EMSA
# Settings: 10 mM Tris-HCl pH 7.5, 50 mM KCl, 1 mM MgCl2, 100 uM MnCl (so in the source), 0.5 mM DTT, 0.05 mg/ml BSA, 10 mg/ml salmon sperm DNA; room temperature, 20 min (EMSA …)
sequence,measurement,value
CACTTCTTCGCCTTCTTTGATTGCGCCAGTACGGCGAATATCCAAACGAACAGAAGCGTAGAATTTCAGTGCGTTACCGCCAGTGGTGGTTTCTGGGTTACCAAACATCACACCAATCTT (double strand) [recA fragment (negative control)],binding,no binding
